Assays:
[1] = test system: SD rats; test: Motor block four-level score, rat plantar incision model (Example 31); assay type: in vivo; parameters: key to motor function score: 1 = normal paw movement to 4 = complete loss of movement with gait defect; settings: for motor function score: bupivacaine 8, conjugate 10/11/12 32/24/48 mg/kg; for effect on motor function of SD rats: conjugate 10/11/12 at 32/24/48 mg/kg
Method: After SD rats inhale anesthesia (isoflurane), an incision of about 1 cm in length from the proximal end of the pelma to the toe is made: after the skin and fascia are cut, the plantar muscle is picked up with an ophthalmic forceps and cut longitudinally (maintaining the starting and ending point and attachment of muscles); pressing is carried out for hemostasis, physiological saline and test drugs are injected into the muscles of animal's legs, and then the pain threshold detection is performed by the hot plate method. Within 24 hours after the model is successful, the rats develop significant hyperalgesia. Qualified rats are randomly divided into 5 groups, 6 rats in each group, which are labeled as groups G1, G2, G3, G4 and G5, respectively. The plantar subcutaneous injection method for administration is used, and the grouping information of the experimental animals is shown in Table 8.
(§1) Motor block (four-level score): The exercise condition of each group of rats is evaluated by the motor block four-level scoring method. The scoring criteria are: paws can be dorsiflexed, stretched, valgus and other normal exercises, scored by 1 point; paws can be dorsiflexed, bendable or after the adduction, although the paws can be stretched, the stretching ability is weakened, scored by 2 points; the paws can perform dorsiflexion, but no longer has the ability to stretch, scored by 3 points; the paws completely lose the ability of dorsiflexion, curling and stretching, and the rats produce a gait defect, scored by 4 points. The time point for measuring the motor block score is before administration, and 0.5 h, 1 h, 2 h, 4 h, 6 h, 8 h, 12 h, and 24 h after administration.

[2] = test system: SD rats; test: Hot plate paw withdrawal time, rat sciatica model, intervertebral disc compression (SNL) (Example 32); assay type: in vivo; settings: for time the analgesic effect can reach: conjugate 10/11/12 at 32/24/48 mg/kg
Description: Intervertebral disc compression (SNL): This model is a pathological form that simulates clinical disc herniation. The specific method is to remove the autogenous caudal intervertebral disc tissue (annulus fibrosus and nucleus pulposus) form the rats and place the caudal intervertebral disc tissue between the proximal nerve root of the L5 dorsal root ganglion and the lower vertebral body to directly compress the L5 nerve root, wherein damage to the L5 nerve root or dorsal root ganglion should be avoided during the operation. 3 to 15 days after the model is successful, rats develop significant hyperalgesia, so the administration time we chose is between 3 days and 15 days.
Qualified rats are randomly divided into 5 groups, 6 rats in each group, which are labeled as groups G1, G2, G3, G4 and G5, respectively. Administration by intramuscular injection around sciatic nerve is adopted, and the grouping information of the experimental animals is shown in Table 11.
Sensory block (hot plate paw withdrawal time): The sensory block of the rat is examined by a hot plate method, and the hot plate is heated to (56±1)° C., and one of the hind paws of the rat is placed on the hot plate, the other hind paw is in the laboratory room temperature condition, and the tested paw withdrawal time is observed and recorded. The average value of two to three times measured is recorded as a pain threshold. In order to avoid the damage of the experimental animal body, if the rat has no paw withdrawal in the hot plate experiment for more than 15 s, the paws should be removed from the hot plate, and the experimental result is recorded as 15 s. The time point for determining the withdrawal time of the hot plate is before administration, and 0.5 h, 1 h, 2 h, 4 h, 6 h, 8 h, 12 h, and 24 h after administration.

[3] = test system: SD rats; test: Motor block four-level score (Example 30); assay type: in vivo, rat; parameters: key to motor function score: 1 = normal motor function to 4 = complete loss with gait defect; settings: for motor function score: direct injection around sciatic nerve, conjugate 10/11/12 at 32/24/48 mg/kg (as bupivacaine); for effect on motor function of SD rats: conjugate 10 at 32 mg/kg, conjugate 11 at 24 mg/kg; for motor scores at different time points versus vehicle group: direct injection, conjugate 10/11/12 at 32/24/48 mg/kg
Method: Male Sprague-Dawley rats are used in the study, about 230-250 g when accepted, and acclimated for at least 7 days prior to the experiment. Two rats are raised in each cage and fed freely with feed and water. The environmental conditions of the breeding room are 23±2° C., and the relative humidity is 40% to 70%, alternating 12 hours of light and dark. […] The qualified rats are randomly divided into 4 groups, 4 rats in each group, which are labeled as groups G1, G2, G3, and G4, respectively. Administration by direct injection in the sciatic nerve is adopted, and with the rat's back facing up, the drug is injected around the right sciatic nerve trunk between the right hip and the right thigh.
as §1, with “can be stretched after the adduction, the stretching” for “can be stretched, the stretching”, “points; the paw can perform” for “points; the paws can perform”

[4] = 0 h (after surgery, before administration), bupivacaine 8, conjugate 10/11/12 32/24/48 mg/kg
[5] = 0.5 h after intramuscular injection around sciatic nerve, bupivacaine 8, conjugate 10/11/12 32/24/48 mg/kg
[6] = 1 h after intramuscular injection around sciatic nerve, bupivacaine 8, conjugate 10/11/12 32/24/48 mg/kg
[7] = 2 h after intramuscular injection around sciatic nerve, bupivacaine 8, conjugate 10/11/12 32/24/48 mg/kg
[8] = 4 h after intramuscular injection around sciatic nerve, bupivacaine 8, conjugate 10/11/12 32/24/48 mg/kg
[9] = 6 h after intramuscular injection around sciatic nerve, bupivacaine 8, conjugate 10/11/12 32/24/48 mg/kg
[10] = 8 h after intramuscular injection around sciatic nerve, bupivacaine 8, conjugate 10/11/12 32/24/48 mg/kg
[11] = 12 h after intramuscular injection around sciatic nerve, bupivacaine 8, conjugate 10/11/12 32/24/48 mg/kg
[12] = 24 h after intramuscular injection around sciatic nerve, bupivacaine 8, conjugate 10/11/12 32/24/48 mg/kg
[13] = before surgery, bupivacaine 8, conjugate 10/11/12 32/24/48 mg/kg (as bupivacaine)
[14] = bupivacaine 8, conjugate 10/11/12 32/24/48 mg/kg

Row | Compound | motor function score ([1]; 0 h (before administration)) | motor function score ([1]; 0.5 h) | motor function score ([1]; 1 h) | motor function score ([1]; 2 h) | motor function score ([1]; 4 h) | motor function score ([1]; 6 h) | motor function score ([1]; 8 h) | motor function score ([1]; 12 h) | motor function score ([1]; 24 h) | effect on motor function of SD rats [1] | hot plate paw withdrawal time [2, 4] [s] | hot plate paw withdrawal time [2, 5] [s] | hot plate paw withdrawal time [2, 6] [s] | hot plate paw withdrawal time [2, 7] [s] | hot plate paw withdrawal time [2, 8] [s] | hot plate paw withdrawal time [2, 9] [s] | hot plate paw withdrawal time [2, 10] [s] | hot plate paw withdrawal time [2, 11] [s] | hot plate paw withdrawal time [2, 12] [s] | hot plate paw withdrawal time [2, 13] [s] | other results
1 | 8-Arm-PEG-Bupivacaine, 20K [bupivacaine conjugate 10] | 1 ± 0 | 1 ± 0 | 1.75 ± 0.5 | 1.75 ± 0.5 | 1.75 ± 0.5 | 1.75 ± 0.5 | 1.75 ± 0.5 | 1 ± 0 | 1 ± 0 | does not affect the motor function | 2.41 | 6.52 | 10.12 | 11.43 | 9.83 | 8.10 | 6.91 | 1.96 | 2.18 | 4.98 | time the analgesic effect can reach [2]: 8 h; motor function score ([3]; 0 h (before administration)): 1 ± 0; motor function score ([3]; 0.5 h): 1 ± 0; motor function score ([3]; 1 h): 1.75 ± 0.5; motor function score ([3]; 2 h): 1.75 ± 0.5; motor function score ([3]; 4 h): 1.75 ± 0.5; motor function score ([3]; 6 h): 1.75 ± 0.5; motor function score ([3]; 8 h): 1.75 ± 0.5; motor function score ([3]; 12 h): 1 ± 0; motor function score ([3]; 24 h): 1 ± 0; effect on motor function of SD rats [3]: does not affect the motor function; motor scores at different time points versus vehicle group [3]: not significantly different
2 | 8-Arm-PEG-Bupivacaine, 20K [bupivacaine conjugate 11] | 1 ± 0 | 1 ± 0 | 1 ± 0 | 1 ± 0 | 1 ± 0 | 1 ± 0 | 1 ± 0 | 1 ± 0 | 1 ± 0 | does not affect the motor function | 2.14 | 7.43 | 8.49 | 9.10 | 8.31 | 7.10 | 1.97 | 2.71 | 2.76 | 5.15 | time after administration at which hot plate paw withdrawal time is significantly higher than vehicle group [2, 14]: ≤ 6 h; time the analgesic effect can reach [2]: ≥ 6 h; motor function score ([3]; 0 h (before administration)): 1 ± 0; motor function score ([3]; 0.5 h): 1 ± 0; motor function score ([3]; 1 h): 1 ± 0; motor function score ([3]; 2 h): 1 ± 0; motor function score ([3]; 4 h): 1 ± 0; motor function score ([3]; 6 h): 1 ± 0; motor function score ([3]; 8 h): 1 ± 0; motor function score ([3]; 12 h): 1 ± 0; motor function score ([3]; 24 h): 1 ± 0; effect on motor function of SD rats [3]: does not affect the motor function; motor scores at different time points versus vehicle group [3]: not significantly different
3 | 8-Arm-PEG-Bupivacaine, 20K [bupivacaine conjugate 12] | 1 ± 0 | 1 ± 0 | 1 ± 0 | 1 ± 0 | 1 ± 0 | 1 ± 0 | 1 ± 0 | 1 ± 0 | 1 ± 0 | does not affect the motor function | 1.89 | 8.13 | 7.21 | 6.12 | 2.98 | 2.91 | 2.18 | 1.85 | 2.56 | 5.51 | time after administration at which hot plate paw withdrawal time is significantly higher than vehicle group [2, 14]: ≤ 2 h; time the analgesic effect can reach [2]: 2 h; motor function score ([3]; 0 h (before administration)): 1 ± 0; motor function score ([3]; 0.5 h): 1 ± 0; motor function score ([3]; 1 h): 1 ± 0; motor function score ([3]; 2 h): 1 ± 0; motor function score ([3]; 4 h): 1 ± 0; motor function score ([3]; 6 h): 1 ± 0; motor function score ([3]; 8 h): 1 ± 0; motor function score ([3]; 12 h): 1 ± 0; motor function score ([3]; 24 h): 1 ± 0; motor scores at different time points versus vehicle group [3]: not significantly different
4 | CCCCN1CCCCC1C(=O)Nc1c(C)cccc1C (centres unmarked) [bupivacaine] | 1 ± 0 | 1 ± 0 | 1.75 ± 0.5 | 1.75 ± 0.5 | 1.75 ± 0.5 | 1.75 ± 0.5 | 1.75 ± 0.5 | 1 ± 0 | 1 ± 0 | – | 2.28 | 7.39 | 9.22 | 2.81 | 1.89 | 1.78 | 1.95 | 2.43 | 1.72 | 5.40 | –
